Consider 40 sequences from the nanobody polyreactivity screen of Harvey et al. (2022).

This data set in a line: yeast display, Sf9 membrane polyspecificity reagent, FACS + sequencing; frameworks hold sequencing errors. The method in brief: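 After 36–48 hours of galactose induction, yeast (Saccharomyces cerevisiae BJ5465) displaying a synthetic nanobody library were stained at 4 °C for 1 hour with 10% biotinylated, detergent-solubilized Sf9 membrane reagent. Streptavidin microbeads enriched the stained cells before FACS sorting into low and high (top ~1%) gates on anti-HA and streptavidin fluorescence. Each clone's polyreactivity label reflects its gate of origin.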
On to “QVQLVESGGVLVQAGGSLRLSCAASGRTFTPYTMGCDRPAPGKERELVAAISWSGGTTYYADSVMGRFTISRDNSKITVYLQMNSLKRVDTAVYYCAARVSRTCHGYYYFWGQGTQVTVSS”, for which the “polyreactivity (PSR sort gate)” value is on record as “high polyreactivity”.

As to “QVQLVESGGVLVQAGGSLRLSCAASGSIFGLYAMGWYRQAPGKERELVAAISRRSVSTYYADSVKGRFTISRDNAKNTVYLQMNSLKPEDTAVYYCAAVTYPYLRSQKGYDGYGYWGHGTQVTVSS”, the “polyreactivity (PSR sort gate)” value is on record as “high polyreactivity”. The same measure for “QVQLVESGGVLVQAGGSLRLSCAASGSIFGVYTMGWYRQAPGKERELVAAISGSGGSTYYADSVKGRFTISRDNAMNTVYLQMNSLKPEDTAVYYCATRFPKIPPYDSWGQGTQVTVSS”: “low polyreactivity”; for “QVQLVESGGVLVQAGGSLRLSCAASGSIFTYYAMGWYRQAPGKEREFVAAISRSGGSTYYADSVKGRFTISRDNANNTVYLQMNSLKPEDTAVYYCNAYSYSDAGDDGDYWGQGTQVTVSS”: “low polyreactivity”. The same measure for “QVQLVESGGVLVQAGGSLRLSCAASGSIFVPYAMGWYRQAPGKERELVAAISSGGSTNYADSVKGRFTISRDNAKNTVYLLMNSLKPEDTAVYYCAADRKYFYLWLDQEHRYYWGQGYQVTVSS”: “low polyreactivity”; for “QVQLVESGGVLVQAGGSLRLSCAASGSISFNAMGWYRQAPGKERELVAAITTSGGRTYYADSVKGRLTISRDNAKNTVSLQMNSLKPEDTAVYYCNVASKGRFARYAAEYVSWRQGTQVTVSS”: “high polyreactivity”. With “QVQLVESGGVLVQAGGSLRLSCAASGSTFDSYAMGWYRQAPGKERELVAAISYGGGSTYYADSVKGRFTISRDNAKNTVYLQMNSLKPEDTAVYYCAARNARGVVGRTESKVTYDYWGQGTQVTVSS” the entry was “high polyreactivity”; with “QVQLVESGGVLVQAGGSLRLSCAASGSTFGANAMGWNREAPGKEREFVAAISGSGTTTYYADSVKGRFTISRDNAKNSVYLHLNSLKQEDTAVYYCAKTRKAHWLEYWGQGTKVTVSS”, “low polyreactivity”; with “QVQLVESGGVLVQAGGSLRLSCAASGSTFGWYAMGWYRQAPGKERELVAAITSVGSTYYADYVKGRFTISRDNAKNTVYLQMNSLKPEDTAVYYCAAGWTYAYTLSLYEYWGQGTQVTVSS”, “low polyreactivity”.

On to “QVQLVESGGVLVQAGGSLRLSCAASGSTFSTNAMGWYRQAPGKEREFVAAITWSGDSTDYADSVKGRFTISRDNAKNTVYLQMNSLKPEDTAVYYCAADFPGFYYVYPGDYWGQGTQVTVSS”, for which the “polyreactivity (PSR sort gate)” value is recorded as “low polyreactivity”. Regarding “QVQLVESGGVLVQAGGSLRLSCAASGSTFYGYAMGWYRQAPGKERELVAAITRSGGSTYYADSVKGRFTISRDNAKNTVYLQMNSLKPEDTAVYYCARQDRDTYYHRYYYWGQGTQVTVSS”, the “polyreactivity (PSR sort gate)” value is given as “high polyreactivity”. Take “QVQLVESGGVLVQAGGSLRLSCAASGSTSYNNAMGWYREAPGKEREFVAAISSNGDRTYYADSVKGRFTISRDNPKNTVYLLMNSLKPEDTAVFYCAVRSWYNYEWGQGTQVTVSS”: the “polyreactivity (PSR sort gate)” value is “high polyreactivity”. With “QVQLVESGGVLVQAGGSLRLSCAASGYIFSLNGMGWYRQAPGKERELVAAITVSGGRTYYADSVKGRFTISRDNAKNTVYLQMNSLKPEDTAVYYCAKRGKYSYWPYYKYDYWGQGTQVTVSS” the entry was “high polyreactivity”. Regarding “QVQLVESGGVLVQAGGSLRLSCAASVFIFPYYAMGRYRQEPGKEMELVAAISSGGITNYADSVKGRFTISRDNSKNTVYLQMNSLKPEDTAVYYCAAKRRVGNFRYGYWGQGTQVTVSS”, the “polyreactivity (PSR sort gate)” value is “high polyreactivity”. The same measure for “QVQLVESGGVLVQAGGSLRLSCAAYGSNFVRNGMGWYRQAPGKEREFVASITSGTITYYADSVKGRFTISRDNAKNTVYLQMNSLKPEDTAVYYCNAGCRSSRFKRPYFRERNYWGQGTQLTVSS”: “high polyreactivity”. As for “QVQLVESGGVLVQAGGSLRLSSAASGGTFWYYAMGMYRQEPGKERELVASISRGGSTNYADSVKGRFTISRDKAKHTVDLQMNRLKPEDTAVYYCIAGLRVGPRRYVDYEYDYWGQGSQVTVSS”, the “polyreactivity (PSR sort gate)” value is on record as “low polyreactivity”.

With “QVQLVESGGVLVQAGGSLRLTCAASGRIFQNYAMGWYRQAPAKERELDATISSGVSTYYADSVKGRFTISRDNAKNTVYLQMNSLKPEDTAVYYCAAYVPWFEMDYWGQGTQVTVSS”, the “polyreactivity (PSR sort gate)” value is on record as “low polyreactivity”.

As to “QVQLVESGGVLVQAGGSLRLTCAASGSTFLYNAMGWYRQAPGKEREFVAAISGSGGTTYYADSVKGRFTISRDNAKNTVYLQMNSLKPEDTAVYYCAVSQSWYWYYASDYWGQGTQVTVSS”, the “polyreactivity (PSR sort gate)” value is “low polyreactivity”.

Turning to “QVQLVESGGVLVQARVSLRLSCAASGLTIYYYAMGWYRQAPGQERELVAAITWRGGSTYYADSVKGRFTISRDNEKNTVYLQMISLKPEVTAVYYCAADPGPYGYYYWGLGTQVTVSS”, the “polyreactivity (PSR sort gate)” value is given as “low polyreactivity”. With “QVQLVESGGVLVQSGGSLRLSCAASGFIFYDYAMGWYRQAPGKEREMVAAITSGGSTYYADSVKGRFTISRDNAKNTVYLQMKSLKPEDTAVYYCAADAYNLDDDTYDYWGQGTIVTVSS” the entry was “low polyreactivity”. With “QVQLVESGGWLVQAGGSLRLRCAASGRIFSRYAMGWYRQAPGKEWELVAAISWSGGSTYYADSVKGRFTISRDNAKNTVYLQMNSLKPEDTAVYYCAAKRQYTEYNYWGQGSQVTVSS” the entry was “high polyreactivity”; with “QVQLVESGGWLVQAGGSLRLSCAASGSTFEDYVMGWYRQAPGTEREFVAAISRGSGSTYYADSVKGRFTISRDNAKNTVFLQMNSLKPEDTAVYYCAARSQLGYRTRYPTYYWGQGTQVTVSS”, “high polyreactivity”; with “QVQLVESGIGLVQAGGSLSLSCAASGFNLDTYGMGWYRQAPGKERELVAAISQSDVSTYYADSVKGRFTISRDNAKNTVYLQMNSLKPEDTAVYYCAADRGGLRWFWQVLYEYWGQGTQVTVSS”, “low polyreactivity”. Turning to “QVQLVESGLGLVQAGGSLRISCAASGRIFYYNAMGWYRQAPGKERELVARIRRSGGRTYYADSVKGRFTISRDNAKNTVYLLMNSLKPADTAVYYCAARRQGRSGNGSWGQGTQVTVSW”, the “polyreactivity (PSR sort gate)” value is given as “high polyreactivity”.

In the case of “QVQLVESGLGLVQEGGCLRVSCAASGSIFSHYAMGWDSQAPGKDREVVAAITGGGITYYADSVKGRFTISRDNAKNTVYLQMNSLIPEDTAVYYWATDSLIFTIFDYSGQGTQVTVSS”, the “polyreactivity (PSR sort gate)” value is listed as “low polyreactivity”. With “QVQLVESGPGLVQAGVSLRLSCAASGSIFAYYAMGWYRQAPGKERELVAAISSRGGNTYYADSVKGRFTISRHYAKNSVYLQMNSLKPEDTAVYYCAADYQYSYGEYDYWGQGTQVTVSS” the entry was “high polyreactivity”; with “QVQLVESGQGLVQAGGSLRLSCAASGFTFWGYTMGWYRQAPGKERELVAGITLSGGSTYYADSVKGRFTISRDNAKNTVYLEMNSLKPEDTAVYYCAAKPYQVSSYDFSLRDYWGQGTQVTVSS”, “low polyreactivity”. The same measure for “QVQLVESGRGIVQAGGSLRLSCAASGSIFLHNAMGWYRQAPGKETELVAAITGSGGYTYYADSVKGRFTISRDNPKNTVYIQMNSRQPEDTAVYYCAACSRSRYYRYVYYQYVTMDYWGQGTQETVSS”: “high polyreactivity”; for “QVQLVESGRGLFQAGGSLRLSCAPSGIIIVNYAMGWYRQAPGKERELVAAITTSGGSTYYADSVKGRFTISRDHAKNTVYLQMNSLKPEDTAVYDCAKKSSLFKHVVRYDYWGQGTQVTVSS”: “low polyreactivity”. With “QVQLVESGRGLVHAGGSHRISCAASGRTFYYYAMGWYRQAPGKERELVAAITRGGSTNYADSVKGRFTISRDNAKITVYLQMNSLKPEDTAVYYCAQPWFYQNRGYDYWGQGTQVTVSS” the entry was “low polyreactivity”; with “QVQLVESGRGLVQAAGSLRLSCASSGSTYFGNTMVWYRQAPGKERELVATITRRGGTTYYADSVKGRFTISRDNAKNSVFLQMNSLKPEDTAVYYCAKRGPYTKYDYWGQGTQVTVSS”, “low polyreactivity”; with “QVQLVESGRGLVQAGGSLRISCAASGSTFGYYAMGWYRQAPGKERELVAAITSTGRTKYADSVKGRFTISRDNAKNTVYLQMNSLKPEDTAVYYCAADIWGQGTQVTVSS”, “high polyreactivity”.

Regarding “QVQLVESGRGLVQAGGSLRISCAPSGITFGRYVMGWYRQAPGKERELVAVISRGGSTNYADSVKGRFTIARDNAKNTDYLQMNSLKPEDSAVYYCAADEWIVHDGYYSSYYYWGQGTQVTVSS”, the “polyreactivity (PSR sort gate)” value was “low polyreactivity”. For the sequence “QVQLVESGRGLVQAGGSLRLICAASGSIFFYYAMGWYRQAPGKERELVAVITSGGSTNYADSVKGRFTISRDNAKNTVYLQMNSLKPEDTAVYYCNADGYGYFTVREFLDYDYWGQGTQVTVSS”, the “polyreactivity (PSR sort gate)” value was “low polyreactivity”. In the case of “QVQLVESGRGLVQAGGSLRLSCAACGRIFYRYTMGSYRQAPGKERELVAAITRGGNTYYADSVKGRFTISRDNANYTVYLQMNSLKPEDTAVYYCAKKAPSDRNNYWGQGTQVTVSS”, the “polyreactivity (PSR sort gate)” value is reported as “high polyreactivity”. Take “QVQLVESGRGLVQAGGSLRLSCAASAVSFISYAMGWYRQAPGKERELVAAISRGGSSTYYADSVKGRFTISRDNAKNTVYLQMNSLKPEDTAVYYCNKAYHRRDSEFGYSGQGTQVTVSS”: the “polyreactivity (PSR sort gate)” value is “high polyreactivity”. With “QVQLVESGRGLVQAGGSLRLSCAASGFIFAYYAMGWYRQAPGKERELVAAITRSGGGTKYADSVKGRFTISRDNAKNTVYLHMNSLKPEDTAVYYCAARWYRQLRDLDYWGQGTQVTVSS” the entry was “high polyreactivity”; with “QVQLVESGRGLVQAGGSLRLSCAASGFTFGYYAMGWYRQAPGKERELVAAISASGASTYYADSVKGRFTISRDNAKNTVYLQMTSLKPEDTAVYYCAARPGQLTSPVTRTRYNYWGQGTQVTVSS”, “low polyreactivity”.

For “QVQLVESGRGLVQAGGSLRLSCAASGFTFYYYANGWYRQAPGKERELVAAISIGGSTYYADSVKGRFTISRDNAKNTVYLQMNCLKPEDTAVYYCNVVFTYWPPGTARYDYWGQGTQVTVSS”, the “polyreactivity (PSR sort gate)” value is given as “high polyreactivity”.

For the sequence “QVQLVESGRGLVQAGGSLRLSCAASGFTLWIYAKGWYRQAPGKESELVAAITWSTGSTYYADSVKGRFTISRDNAKNTVYLLMNSLKPEDTAVYYCPAEFHWWYAGYDYGYWGQGTQVTVSS”, the “polyreactivity (PSR sort gate)” value is “low polyreactivity”.
